In patent US20240400618A1 one finds Kd data, which are given here for 2 substances.

In general, Kd refers to the equilibrium constant for the complex coming apart. Read a high Kd as weaker binding.

The assay has as its target pxEBN4-ACE2-AAA-His (human) (UniProt Q9BYF1).

“UK, Alpha, pxENB9-FLS (from UniProt P0DTC2 15-1213) (ligand)” showed a dissociation constant Kd of 0.00116 nM.

In turn, “SA, Beta, pxENB9-FLS-B.1.351 (from UniProt P0DTC2 15-1213) (ligand)” yielded a Kd of 1.57 nM.
